In patent US20100068151A1 (published 2010) one finds IC50 data, which are given here for two molecules.

This assay addresses T1, VEGFR-2 expressed on PAE/KDR cells (human, UniProt P35968 20-1356).
T1 construct: whole, on cells
The assay can be described thus: cell-binding assay, displacement of 125I-VEGF165 from PAE/KDR cells. A general note: Displacement assays read how much labelled ligand stays bound in the presence of the test substance.

T1 sequence (P35968 20-1356): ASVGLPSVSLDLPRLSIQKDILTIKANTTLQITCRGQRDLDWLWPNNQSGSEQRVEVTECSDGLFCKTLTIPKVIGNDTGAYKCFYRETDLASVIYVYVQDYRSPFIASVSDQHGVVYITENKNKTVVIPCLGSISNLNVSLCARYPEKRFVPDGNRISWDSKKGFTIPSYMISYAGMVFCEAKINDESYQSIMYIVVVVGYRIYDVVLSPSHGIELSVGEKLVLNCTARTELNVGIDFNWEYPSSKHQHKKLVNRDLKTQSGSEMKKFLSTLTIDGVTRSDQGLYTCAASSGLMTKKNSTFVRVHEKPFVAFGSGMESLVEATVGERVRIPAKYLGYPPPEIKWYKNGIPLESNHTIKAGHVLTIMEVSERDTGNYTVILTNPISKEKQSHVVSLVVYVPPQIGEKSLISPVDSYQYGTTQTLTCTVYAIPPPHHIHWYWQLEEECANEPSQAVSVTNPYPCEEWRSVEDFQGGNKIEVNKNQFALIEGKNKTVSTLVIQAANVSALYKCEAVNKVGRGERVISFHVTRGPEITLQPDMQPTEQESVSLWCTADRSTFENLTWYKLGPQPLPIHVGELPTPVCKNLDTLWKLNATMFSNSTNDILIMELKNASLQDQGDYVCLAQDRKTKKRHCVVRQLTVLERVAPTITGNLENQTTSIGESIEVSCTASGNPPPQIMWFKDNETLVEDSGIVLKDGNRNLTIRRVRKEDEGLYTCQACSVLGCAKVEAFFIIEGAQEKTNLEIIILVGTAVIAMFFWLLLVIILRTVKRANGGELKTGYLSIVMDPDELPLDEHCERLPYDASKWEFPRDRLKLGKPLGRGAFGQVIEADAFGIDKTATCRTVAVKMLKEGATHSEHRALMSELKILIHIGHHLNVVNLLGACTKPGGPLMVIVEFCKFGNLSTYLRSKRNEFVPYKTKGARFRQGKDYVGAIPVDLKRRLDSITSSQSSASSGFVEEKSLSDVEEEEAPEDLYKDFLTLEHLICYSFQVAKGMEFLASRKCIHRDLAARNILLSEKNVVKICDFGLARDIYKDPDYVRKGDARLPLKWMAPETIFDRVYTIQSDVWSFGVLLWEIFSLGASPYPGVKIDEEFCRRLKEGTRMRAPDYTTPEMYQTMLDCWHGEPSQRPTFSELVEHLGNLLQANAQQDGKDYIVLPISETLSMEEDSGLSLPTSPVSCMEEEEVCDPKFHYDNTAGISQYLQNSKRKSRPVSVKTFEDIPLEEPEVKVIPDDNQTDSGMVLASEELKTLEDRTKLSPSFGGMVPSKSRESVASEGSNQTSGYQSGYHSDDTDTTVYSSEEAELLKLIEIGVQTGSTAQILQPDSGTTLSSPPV

B1: VEGF121/rGel fusion toxin (other)
chain: APMAEGGGQNHHEVVKFMDVYQRSYCHPIETLVDIFQEYPDEIEYIFKPSCVPLMRCGGCCNDEGLECVPTEESNITMQIMRIKPHQGQHIGEMSFLQHNKCECRPKKDRARQEKCDKPRRGGGGSGLDTVSFSTKGATYITYVNFLNELRVKLKPEGNSHGIPLLRKKCDDPGKCFVLVALSNDNGQLAEIAIDVTSVYVVGYQVRNRSYFFKDAPDAAYEGLFKNTIKTRLHFGGSYPSLEGEKAYRETTDLGIEPLRIGIKKLDENAIDNYKPTEIASSLLVVIQMVSEAARFTFIENQIRNNFQQRIRPANNTISLENKWGKLSFQIRTSGANGMFSEAVELERANGKKYYVTAVDQVKPKIALLKFVDKDPK
notes: Described as an 84-kDa fusion protein made as in Veenendaal et al., 2002; also called vasculature-targeting fusion protein
Usually IC50 stands for the point on the concentration scale where inhibition reaches its midpoint. B1 displayed an IC50 of 24.5 nM.

B2: DOTA-VEGF121/rGel conjugate (other)
chain: B1 chain
modifications: DOTA chelator conjugated, 3.3±0.1 DOTA molecules per VEGF121/rGel molecule; sites not stated
Turning to B2, the IC50 turned out to be 40.6 nM.
